The text below walks through data of PMC5673899, “Structural basis for receptor recognition of pollen tube attraction peptides” (Nature Communications, 2017).

Entries after “also recorded” stand apart in the source; their conditions may differ.

The test system of one assay is AtPRK3^LRR. The assay is described as follows: ITC, AtLURE1.2 titrated into AtPRK3^LRR. The format is binding, Arabidopsis. The following applies: 25 °C, 200 mM HEPES pH 7.0, 100 mM NaCl, ~0.9 mM AtLURE1.2 into 0.08 mM AtPRK3^LRR. The text has this: (§1) The genes of AtPRK3 ^LRR (residues 1–241), AtPRK4 ^LRR (residues 1–277), AtPRK5 ^LRR (residues 1–279), AtPRK6 ^LRR (residues 1–262), MIK1 ^LRR (residues 1–633), MIK2 ^LRR (residues 1–707) were amplified from Arabidopsis cDNA library by PCR and cloned into pFastBac-1 vector with a C-terminal 6 × His-tag. Their identities were confirmed by sequencing. The mature form of AtLURE1.1 (residues 20–94), AtLURE1.2 (residues 20–90), AtLURE1.3 (residues 21–91), and AtLURE1.4 (residues 20–90) were cloned into pFastBac-1 vector, with a modified N-terminal hemolin signal peptide and 6 × His-SUMO tag. Point mutation constructs were generated by QuickChange Site-Directed Mutagenesis Kit (Strategene). All the proteins were expressed using the Bac-to-Bac baculovirus expression system (Invitrogen) in High Five cells at 22 °C. One liter of High Five cells (2.0 × 10^6 cells mL^−1) cultured in the medium from Expression Systems was infected with 25 ml recombinant baculovirus and the media was collected after 72 h of infection. Secreted LRR proteins were purified using Ni-NTA (Novagen) and size-exclusion chromatography (Hiload 200, GE Healthcare) in buffer containing 10 mM Bis-Tris pH 6.0 and 100 mM NaCl. The His-SUMO tag of the AtLURE proteins was removed by Prescission Protease at 4 °C overnight in buffer containing 25 mM Tris pH 8.0 and 150 mM NaCl. […]

The test system of the next assay is AtPRK6^LRR. The assay is described as follows: In vitro pull-down with AtPRK6^LRR. The format is binding, Arabidopsis thaliana. The following applies: Ni-NTA, excess AtLURE1.2, on ice 30 min, washed five times, 25 mM Tris pH 8.0, 150 mM NaCl; SDS-PAGE, Coomassie blue; repeated at least three times. An excerpt:
The genes of AtPRK3 ^LRR (residues 1–241), AtPRK4 ^LRR (residues 1–277), AtPRK5 ^LRR (residues 1–279), AtPRK6 ^LRR (residues 1–262), MIK1 ^LRR (residues 1–633), MIK2 ^LRR (residues 1–707) were amplified from Arabidopsis cDNA library by PCR and cloned into pFastBac-1 vector with a C-terminal 6 × His-tag. Their identities were confirmed by sequencing. The mature form of AtLURE1.1 (residues 20–94), AtLURE1.2 (residues 20–90), AtLURE1.3 (residues 21–91), and AtLURE1.4 (residues 20–90) were cloned into pFastBac-1 vector, with a modified N-terminal hemolin signal peptide and 6 × His-SUMO tag. Point mutation constructs were generated by QuickChange Site-Directed Mutagenesis Kit (Strategene). All the proteins were expressed using the Bac-to-Bac baculovirus expression system (Invitrogen) in High Five cells at 22 °C. One liter of High Five cells (2.0 × 10^6 cells mL^−1) cultured in the medium from Expression Systems was infected with 25 ml recombinant baculovirus and the media was collected after 72 h of infection. Secreted LRR proteins were purified using Ni-NTA (Novagen) and size-exclusion chromatography (Hiload 200, GE Healthcare) in buffer containing 10 mM Bis-Tris pH 6.0 and 100 mM NaCl. The His-SUMO tag of the AtLURE proteins was removed by Prescission Protease at 4 °C overnight in buffer containing 25 mM Tris pH 8.0 and 150 mM NaCl. All AtLURE proteins were further cleaned by size-exclusion chromatography (Hiload 200, GE Healthcare). For co-expression of AtPRK6^LRR and AtLURE1, one liter of High Five cells were co-infected with 20 and 30 ml recombinant baculovirus of AtPRK6^LRR and AtLURE1, respectively. Secreted AtPRK6^LRR-AtLURE1 complexes were processed with Prescission Protease digestion and then purified as described above. Expression and purification procedures of all the mutants were essentially the same as those of AtPRK6^LRR and AtLURE1.2.
(§2) The purified His-tagged ectodomains of AtPRK proteins and MIK1, 2 were used to pull-down the AtLURE1.2 peptide. […] All the eluted samples were analyzed by SDS-PAGE and visualized by Coomassie blue staining. […]

A further assay relates to MIK1^LRR. Kind of assay: Gel filtration assay with MIK1^LRR. The following applies: 4 °C 30 min, 10 mM Bis-Tris pH 6.0, 100 mM NaCl. Type of assay: binding, Arabidopsis.
Source text: as §1

A further assay concerns MIK2^LRR. The assay is described as follows: Gel filtration assay with MIK2^LRR. Type of assay: binding, Arabidopsis. Conditions: 4 °C 30 min, 10 mM Bis-Tris pH 6.0, 100 mM NaCl.
Source text: as §1

For the next assay, the system named is AtPRK6^LRR D234A. The assay is described as follows: In vitro pull-down with AtPRK6^LRR mutant D234A. Type of assay: binding, Arabidopsis thaliana. Conditions: wild-type AtLURE1.2.
Source text: as §1, with “NaCl.” for “NaCl. The His-SUMO tag of the AtLURE proteins was removed by Prescission Protease at 4 °C overnight in buffer containing 25 mM Tris pH 8.0 and 150 mM NaCl.”
as §2

Assay [1] deals with prk3 deletion pollen tubes. Conditions: cited from earlier work. The text has this:
(§3) The DEFL peptide SCR9 that is involved in self-recognition in self-incompatibility induces homodimerization of its receptor SRK9 (ref. [34]).

For assay [2], the system named is prk6 knockout pollen tubes. Conditions: cited from earlier work.
Source text: as §3

B1: AtLURE1.2: mature form of AtLURE1.2 (residues 20–90), defensin-like cysteine-rich peptide expressed in insect cells (protein)
chain: TLINGSSDEERTYSFSPTTSPFDPRSLNQELKIGRIGYCFDCARACMRRGKYIRTCSFERKLCRCSISDIK
modifications: left off: His6, N-terminal, cleaved | SUMO, N-terminal, cleaved
notes: mature form of AtLURE1.2 (residues 20–90), defensin-like cysteine-rich peptide expressed in insect cells
On to B1, for which the “binding in ITC” value in the assay on AtPRK3^LRR is “none of the purified AtPRK3^LRR, MIK1^LRR or MIK2^LRR proteins showed detectable interaction”. The “interaction in pull-down assay” value in the assay on AtPRK6^LRR was “strongly interacted”; in the assay with AtPRK6^LRR D234A, “greatly compromised; also recorded: significantly compromised”. The “interaction in gel filtration” value is “no interaction; also recorded: none of the purified AtPRK3^LRR, MIK1^LRR or MIK2^LRR proteins showed detectable interaction” in the assay on MIK1^LRR and “none of the purified AtPRK3^LRR, MIK1^LRR or MIK2^LRR proteins showed detectable interaction” in the assay on MIK2^LRR. Further, the “responsiveness of pollen tubes to AtLURE1.2” value in assay [1] is given as “little effect”. In assay [2], the “pollen tube reorientation toward AtLURE1.2” value is reported as “completely abolished”.
